The source of these data is PMC2804849.

By Kd is commonly meant the free concentration of one partner at which half of the binding sites on the other are occupied at equilibrium, for simple one-to-one binding. As usually defined, the koff is the first-order rate constant of dissociation. A lower koff goes with slow dissociation. In general, kon refers to a measure of how fast the partners come together.

The target of test [1] is SCF (Homo sapiens) (UniProt Q13616). To be noted: cited from earlier work.
In test [2] the target is Rbx1-Cul1-CFP complex (RC^CFP) (human) (UniProt P62877). Briefly: FRET or BRET. Background: BRET reads energy transfer from a luciferase to a nearby fluorophore.
Test [3] concerns the target SCF holoenzyme (FRET experiment of Figure S2c) (human) (UniProt P62877). Briefly: FRET or BRET.
The target in test [4] is Nedd8-conjugated RC^CFP (human) (UniProt P62877). The test can be described thus: FRET or BRET.

Where only a bound is given, the exact number is not on record here.

Sequence of Cdc34 (P49427 whole entry): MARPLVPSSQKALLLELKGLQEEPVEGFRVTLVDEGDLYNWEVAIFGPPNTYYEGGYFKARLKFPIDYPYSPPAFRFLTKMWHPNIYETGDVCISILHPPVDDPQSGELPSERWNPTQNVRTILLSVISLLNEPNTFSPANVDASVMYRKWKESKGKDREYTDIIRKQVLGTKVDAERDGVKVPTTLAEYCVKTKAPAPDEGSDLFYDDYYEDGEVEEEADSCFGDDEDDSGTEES

Regarding Cdc34 (from UniProt P49427), the equilibrium dissociation constant (Kd) in test [1] was 20 nM.

As for “human Cdc34, WT, labelled with Lumio Green at the C-terminus (from UniProt Q712K3 1-238) (enzyme)”, in test [2], the Kd came out at 74 nM, the koff was 35 s⁻¹ and the association rate constant (kon) turned out to be 4.7e+08 M⁻¹ s⁻¹. Moreover, the fold change of koff against RC^CFP heterodimer in test [3] was less than 2 fold.

In test [4], “human Cdc34 charged with ubiquitin (Cdc34~Ub) (from UniProt Q712K3 1-238; P0CG48 1-76) (complex)” showed a fold change of the kinetic parameters against uncharged Cdc34 of 2 fold.
